In patent US20230056252A1 (Gilead, published 2023):
Substitutions are numbered along the chain they refer to.

B1: huSP34.3.8 Fab-HF (Fab, V domains shown)
VH: EVQLVESGGGLVQPGGSLRLSCAASGFTFNTYAMNWVRQAPGKGLEWVGRIRSKYNNYATYYADSVKGRFTISRDDSKNSLYLQMNSLRTEDTAVYYCVRHGNFGHSYVSWFAYWGQGTLVTVSS
VL: QAVVTQEPSLTVSPGGTVTLTCGSSTGAVTTGHYANWVQQKPGQAPRGLIGGTNKRAPGVPARFSGSLLGGKAALTISGAQPEDEAEYYCALWYSNRWVFGGGTKLTVL
notes: also called HC3+LC8
B2: huSP34.13.10 Fab-HF (Fab, V domains shown)
VH: B1 VH with N30S, D64A, S80T
VL: B1 VL with E7P, L69S
notes: also called HC13+LC10
B3: huSP34.13.9 Fab-HF (Fab, V domains shown)
VH: B1 VH with N30S, D64A, S80T
VL: B1 VL with E7P, L69S, R97L
notes: also called HC13+LC9
B4: huSP34.3.10 Fab-HF (Fab, V domains shown)
VH: B1 VH
VL: B1 VL with E7P, L69S
notes: also called HC3+LC10
B5: huSP34.13.8 Fab-HF (Fab, V domains shown)
VH: B1 VH with N30S, D64A, S80T
VL: B1 VL
notes: also called HC13+LC8
B6: mSP34 Fab-HF v2 (Fab, V domains shown)
VH: EVKLLESGGGLVQPKGSLKLSCAASGFTFNTYAMNWVRQAPGKGLEWVARIRSKYNNYATYYADSVKDRFTISRDDSQSILYLQMNNLKTEDTAMYYCVRHGNFGNSYVSWFAYWGQGTLVTVSA
VL: QAVVTQESALTTSPGETVTLTCRSSTGAVTTSNYANWVQEKPDHLFTGLIGGTNKRAPGVPARFSGSLIGDKAALTITGAQTEDEAIYFCALWYSNLWVFGGGTKLTVLG
B7: hPGT121.66 AAS + W/huSP34.40.13 scFv AAS + SAV + R (bispecific antibody, human IgG1, lambda, L234A L235A)
chain: EVQLVESGGGLVQPGGSLRLSCAASGFTFNTYAMNWVRQAPGKGLEWVGRIRSKYNNYAAYYADSVKSRFTISRDDSKNSLYLQMNSLRTEDTAVYYCVRHGNFGHSYVSWFAYWGQGTLVTVSSGGGGSGGGGSGGGGSGGGGSQAVVTQEPSLTVSPGGTVTLTCGSSTGAVTTGHYANWVQQKPGQAPRGLIGGTSNRAPGVPARFSGSLLGGKAALTISGAQPEDEAEYYCALWYSNRWVFGGGTKLTVLEPKSSDKTHTCPPCPAPEAAGGPSVFLFPPKPKDTLMISRTPEVTCVVVDVSHEDPEVKFNWYVDGVEVHNAKTKPREEQYNSTYRVVSVLTVLHQDWLNGKEYKCKVSNKALPASIEKTISKAKGQPREPQVYTLPPSREEMTKNQVSLSCAVKGFYPSDIAVEWESNGQPENNYKTTPPVLDSDGSFFLVSKLTVDKSRWQQGNVFSCSVMHEALHNRYTQKSLSLSPGK
heavy: QMQLQESGPGLVKPSETLSLTCSVSGASISDSYWSWIRRSPGKGLEWIGYVHKSGDTNYNPSLKSRVHLSLDTSKNQVSLSLTGVTAADSGKYYCARTLHGRRIYGIVAFNEWFTYFYMDVWGTGTQVTVSSASTKGPSVFPLAPSSKSTSGGTAALGCLVKDYFPEPVTVSWNSGALTSGVHTFPAVLQSSGLYSLSSVVTVPSSSLGTQTYICNVNHKPSNTKVDKKVEPKSCDKTHTCPPCPAPEAAGGPSVFLFPPKPKDTLMISRTPEVTCVVVDVSHEDPEVKFNWYVDGVEVHNAKTKPREEQYNSTYRVVSVLTVLHQDWLNGKEYKCKVSNKALPASIEKTISKAKGQPREPQVYTLPPSREEMTKNQVSLWCLVKGFYPSDIAVEWESNGQPENNYKTTPPVLDSDGSFFLYSKLTVDKSRWQQGNVFSCSVMHEALHNHYTQKSLSLSPGK
light: not shown
notes: also called 276; bispecific 276
B8: hPGT121.66 AAS W/huSP34.39.13 scFv AAS + SAV + R (bispecific antibody, human IgG1, lambda, L234A L235A)
chain: B7 chain with A60T, Q84E
heavy: B7 heavy
light: not shown
B9: hPGT121.66 AAS + W/huSP34.41.13 scFv AAS + SAV + R (bispecific antibody, human IgG1, lambda, L234A L235A)
chain: B7 chain with R19S, A60T
heavy: B7 heavy
light: not shown
B10: huSP34.7.6 Fab-HF (Fab, V domains shown)
VH: B1 VH with N30S, T31D, I51T, D64A, R89K, H106N, Y114V
VL: B1 VL with E7P, N54S, K55N, L69S, N96A
B11: huSP34.9.6 Fab-HF (Fab, V domains shown)
VH: B1 VH with N30S, T31D, I51T, N57S, D64A, R89K, H106N, Y114V
VL: B1 VL with E7P, N54S, K55N, L69S, N96A
B12: huSP34.10.6 Fab-HF (Fab, V domains shown)
VH: B1 VH with N30S, T31D, I51T, N57S, D64A, R89K, Y114V
VL: B1 VL with E7P, N54S, K55N, L69S, N96A
B13: huSP34.6.6 Fab-HF (Fab, V domains shown)
VH: B1 VH with N30S, D76N, S80T, T90A, V95M, H106N, Y114V
VL: B1 VL with E7P, N54S, K55N, L69S, N96A
B14: huSP34.7.1 Fab-HF (Fab, V domains shown)
VH: B1 VH with N30S, T31D, I51T, D64A, R89K, H106N, Y114V
VL: B1 VL with G23R, G32S, H33N, G59W, V60T, L69I, G71D, I77L, R97L
B15: huSP34.8.1 Fab-HF (Fab, V domains shown)
VH: B1 VH with N30S, T31D, I51T, D64A, R89K, Y114V
VL: B1 VL with G23R, G32S, H33N, G59W, V60T, L69I, G71D, I77L, R97L
B16: huSP34.6.5 Fab-HF (Fab, V domains shown)
VH: B1 VH with N30S, D76N, S80T, T90A, V95M, H106N, Y114V
VL: B1 VL with N54S, K55N, G59W, V60T, I77L, N96A
B17: huSP34.6.2 Fab-HF (Fab, V domains shown)
VH: B1 VH with N30S, D76N, S80T, T90A, V95M, H106N, Y114V
VL: B1 VL with G32S, H33N, N54S, K55N, G59W, V60T, I77L, R97L
B18: huSP34.10.1 Fab-HF (Fab, V domains shown)
VH: B1 VH with N30S, T31D, I51T, N57S, D64A, R89K, Y114V
VL: B1 VL with G23R, G32S, H33N, G59W, V60T, L69I, G71D, I77L, R97L
B19: huSP34.8.4 Fab-HF (Fab, V domains shown)
VH: B1 VH with N30S, T31D, I51T, D64A, R89K, Y114V
VL: B1 VL with G32S, N54S, G59W, V60T, I77L, N96A, R97L
B20: huSP34.10.2 Fab-HF (Fab, V domains shown)
VH: B1 VH with N30S, T31D, I51T, N57S, D64A, R89K, Y114V
VL: B1 VL with G32S, H33N, N54S, K55N, G59W, V60T, I77L, R97L
B21: huSP34.6.4 Fab-HF (Fab, V domains shown)
VH: B1 VH with N30S, D76N, S80T, T90A, V95M, H106N, Y114V
VL: B1 VL with G32S, N54S, G59W, V60T, I77L, N96A, R97L
B22: huSP34.8.5 Fab-HF (Fab, V domains shown)
VH: B1 VH with N30S, T31D, I51T, D64A, R89K, Y114V
VL: B1 VL with N54S, K55N, G59W, V60T, I77L, N96A
B23: huSP34.9.2 Fab-HF (Fab, V domains shown)
VH: B1 VH with N30S, T31D, I51T, N57S, D64A, R89K, H106N, Y114V
VL: B1 VL with G32S, H33N, N54S, K55N, G59W, V60T, I77L, R97L
B24: huSP34.6.1 Fab-HF (Fab, V domains shown)
VH: B1 VH with N30S, D76N, S80T, T90A, V95M, H106N, Y114V
VL: B1 VL with G23R, G32S, H33N, G59W, V60T, L69I, G71D, I77L, R97L
B25: huSP34.10.4 Fab-HF (Fab, V domains shown)
VH: B1 VH with N30S, T31D, I51T, N57S, D64A, R89K, Y114V
VL: B1 VL with G32S, N54S, G59W, V60T, I77L, N96A, R97L
B26: huSP34.8.2 Fab-HF (Fab, V domains shown)
VH: B1 VH with N30S, T31D, I51T, D64A, R89K, Y114V
VL: B1 VL with G32S, H33N, N54S, K55N, G59W, V60T, I77L, R97L
B27: huSP34.8.6 Fab-HF (Fab, V domains shown)
VH: B1 VH with N30S, T31D, I51T, D64A, R89K, Y114V
VL: B1 VL with E7P, N54S, K55N, L69S, N96A
B28: huSP34.9.1 Fab-HF (Fab, V domains shown)
VH: B1 VH with N30S, T31D, I51T, N57S, D64A, R89K, H106N, Y114V
VL: B1 VL with G23R, G32S, H33N, G59W, V60T, L69I, G71D, I77L, R97L
B29: huSP34.9.5 Fab-HF (Fab, V domains shown)
VH: B1 VH with N30S, T31D, I51T, N57S, D64A, R89K, H106N, Y114V
VL: B1 VL with N54S, K55N, G59W, V60T, I77L, N96A
B30: huSP34.9.4 Fab-HF (Fab, V domains shown)
VH: B1 VH with N30S, T31D, I51T, N57S, D64A, R89K, H106N, Y114V
VL: B1 VL with G32S, N54S, G59W, V60T, I77L, N96A, R97L
B31: huSP34.10.5 Fab-HF (Fab, V domains shown)
VH: B1 VH with N30S, T31D, I51T, N57S, D64A, R89K, Y114V
VL: B1 VL with N54S, K55N, G59W, V60T, I77L, N96A

Molecular target: T1, biotinylated CD3 epsilon:delta heterodimer protein (Amsbio AMS.CDD-H52WO) (Homo sapiens (Human), UniProt P07766 23-126; P04234 22-105)
T1 construct: also called CD3 heterodimer
Assay: BLI (Octet), CD3 on SA sensor, Fab analyte

Row | Binder | Kd | koff | kon
1 | B1 | 4.4 nM | 0.00113 s⁻¹ | 255000 M⁻¹ s⁻¹
2 | B2 | 1.7 nM | 0.00204 s⁻¹ | 1.36e+06 M⁻¹ s⁻¹
3 | B3 | 2.7 nM | 0.00361 s⁻¹ | 1.38e+06 M⁻¹ s⁻¹
4 | B4 | 2 nM | 0.00137 s⁻¹ | 683000 M⁻¹ s⁻¹
5 | B5 | 2.5 nM | 0.00216 s⁻¹ | 933000 M⁻¹ s⁻¹
6 | B6 | 5.2 nM | 0.00266 s⁻¹ | 532000 M⁻¹ s⁻¹

Molecular target: T1, biotinylated CD3 epsilon:delta …
Assay: BLI (Octet), CD3 on SA sensor, Fab analyte
Remark: another data set of the same source

Row | Binder | Kd | koff | kon
7 | B1 | 1.9 nM | 0.00024 s⁻¹ | 131000 M⁻¹ s⁻¹
8 | B4 | 2.3 nM | 0.000235 s⁻¹ | 142000 M⁻¹ s⁻¹

Molecular target: T2, biotinylated Human CD3E and CD3D (Acro Biosystems Cat CDD-H82W1) (human, UniProt P07766 23-126; P04234 22-105)
T2 construct: also called biotinylated CD3
Assay: SPR (Biacore 4000), CD3 captured on streptavidin chip;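 further: bispecific antibodies or Fabs injected at several concentrations over CD3 surfaces of varying density, sensorgrams fitted with a simple kinetic model to obtain association, dissociation and equilibrium constants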

Row | Binder | Kd | koff | kon
9 | B7 | 1.8 nM | 0.0063 s⁻¹ | 3.6e+06 M⁻¹ s⁻¹
10 | B8 | 2.6 nM | 0.009 s⁻¹ | 3.4e+06 M⁻¹ s⁻¹
11 | B9 | 2.8 nM | 0.0085 s⁻¹ | 3e+06 M⁻¹ s⁻¹

Molecular target: T3, CD3 expressed on cell-surface of primary human T cells (human, UniProt P07766 23-207; P04234 22-171)
T3 construct: also called cell-surface CD3; human CD3
Assay: flow cytometry competition vs murine SP34-AF488 on human T cells, n = 1

Row | Binder | IC50
12 | B10 | > 20 µg/mL
13 | B11 | > 20 µg/mL
14 | B12 | > 20 µg/mL
15 | B13 | > 20 µg/mL
16 | B14 | > 20 µg/mL
17 | B15 | > 20 µg/mL
18 | B16 | > 20 µg/mL
19 | B17 | > 20 µg/mL
20 | B18 | > 20 µg/mL
21 | B19 | > 20 µg/mL
22 | B20 | > 20 µg/mL
23 | B21 | > 20 µg/mL
24 | B22 | > 20 µg/mL
25 | B23 | > 20 µg/mL
26 | B24 | > 20 µg/mL
27 | B25 | > 20 µg/mL
28 | B26 | > 20 µg/mL
29 | B27 | > 20 µg/mL
30 | B28 | > 20 µg/mL
31 | B29 | > 20 µg/mL
32 | B30 | > 20 µg/mL
33 | B31 | > 20 µg/mL
